Patent US20240409617A1

Key:
[1] = biological target: B.1.1.7 Spike (SARS-CoV2)
[2] = biological target: B.1.351 Spike (SARS-CoV2)
[3] = biological target: P.1 Spike (SARS-CoV2)
[4] = biological target: B.1.1.7 Spike (SARS-CoV-2 spike protein, UK variant B.1.1.7) (SARS-CoV-2)
[5] = biological target: B.1.351 Spike (SARS-CoV-2 spike protein, South African variant B.1.351) (SARS-CoV-2)
[6] = biological target: P.1 Spike (SARS-CoV-2 spike protein, Brazilian variant P.1) (SARS-CoV-2)

| Binder | Kd [1] | Response [1] | Kd [2] | Response [2] | Kd [3] | Response [3] | Kd [4] | Response [4] | Kd [5] | Response [5] | Kd [6] | Response [6] |
| --- | --- | --- | --- | --- | --- | --- | --- | --- | --- | --- | --- | --- |
| Ab_27 scFv-Fc (scFv, V domains shown) VH: QVQLVQSGTEVKKPGASVKVSCKASGYSFTGSHLHWVRQAPGQGLEWMGWINPDSGVINYAQKFQGRVTLTRDTSISTAYMELSGLRSDDTAVYYCARDKAIGYVWALDYWGQGTLVTVSS VL: QSALTQPPSVSGSPGQSVTISCTGTSSDVGTYNRVSWYQQPPGKAPKLMIYEVSNRPSGVSNRFSGSKSGNTASLTISGLQAEDEADYYCSSYTRTFTYVFGTGTKVTVL | 1.57 pM | 0.281 | 1.25 pM | 0.0974 | 8.9 pM | 0.0795 |  |  |  |  |  |  |
| Ab_17 scFv-Fc (scFv, V domains shown) VH: QVQLVQSGGGVVQPGRSLRLSCAASGFTFDDYAMHWVRQVPGKGLEWVSGIDWNSGVIGYADSVKGRFTISRDNVKNSLYLQMNSLRTEDSALYYCAKDIGPGGSGSYYAFDIWGQGTTVTVSS VL: QSALTQPASVSGSPGQSITISCTGTSSDVGGSKYVSWYQQHPGKAPKVMIYDVTKRPSGVPDRFSGSKSGNTASLTISGLQAEDEADYYCAAWDDSLNGVVFGGGTKLTVL | 1.85 pM | 0.331 | 562 pM | 0.199 | 8 pM | 0.177 |  |  |  |  |  |  |
| Ab_21 scFv-Fc (scFv, V domains shown) VH: QVQLVQSGGGLVQPGGSLRLSCATSGFTFDDYAMHWVRQAPGKGLEWVSGISWNSGSIGYVDSVKGRFTISRDNRNNKVYLQMNNLRAEDTAVYYCARDWWGSIDHWGLGTLVTVSS VL: QSALTQPRSVSGSPGQSVTISCTGTSSDVGGYDYVSWYQQHPGKAPKLIIYDVSKRPSGVPDRFSGSKSGNTASLTVSGLQAEDEADYYCSSYTSSSPVVFGGGTKLTVL | 1.47 pM | 0.199 | 369 pM | 0.148 | 9.52 pM | 0.103 |  |  |  |  |  |  |
| Ab_16 scFv-Fc (scFv, V domains shown) VH: QVQLVQSGGGVVQPGRSLRLSCAASGFTFSNYGMHWVRQAPGKGLEWVALIWERGSKKDYADSVKGRFTVSRDNSKNTLYLQMNSLRPEDTAVYFCAREGISMTGAEYFQHWGQGTLVTVSS VL: QSVLTQPPSVSGSPGQRVTMSCTGSSSNIGAGYDVHWYQQVPGAAPRLLIYGTNNRPSGVPDRFSGSKSGTSASLTITGLQAEDEADYYCQSYDNSLTDPYVFGTGTKVTVL | 2.36 pM | 0.388 | < 1 pM | 0.405 | 7.93 pM | 0.35 |  |  |  |  |  |  |
| Ab_19 scFv-Fc (scFv, V domains shown) VH: EVQLVESGAEVKKPGESLKISCKGSGYSFTSYWIGWVRQMPGKGLEWMGIIYPGDSDTRYSPSFQGQVTISADKSISTAYLQWSSLKASDTAMYYCARRGDLDAFDIWGQGTMVTVSS VL: QPGLTQPPAASGTPGQRVTVSCSGASANIGSNAVSWFKQFPETAPRLLISGNTHRPSGVPDRVSGSKSGTSASLTISGLQSDDEADYYCAAWDDSLNGYVFGSGTKVTVL | 10.3 pM | 0.203 | 11.8 pM | 0.258 | 8.94 pM | 0.204 |  |  |  |  |  |  |
| S1-R3-T1-C4 (Ab_8) scFv-Fc (scFv, V domains shown) VH: QVQLVQSGAEVKKPGSSVKVSCKASGGTFSSYAISWLRQAPGQGLEWMGWINPNSGGTNYAQKFQGRVTMTRDTSISTAYMELSRLRSDDTAVYYCARGSGGYYLGWGQGTLVTVSS VL: QPGLTQPPSVSKGLRQTATLTCTGNSNNVGNQGAAWLQQHQGHPPKLLSYMNNNRPPGISERFSASRSGNTASLTITGLQPEDEADYYCSAWDSSLSRWVFGGGTKLSVL | 2.29 pM | 0.202 | 1090 pM | 0.0872 | 10.6 pM | 0.0784 |  |  |  |  |  |  |
| Ab_23 scFv-Fc (scFv, V domains shown) VH: EVQLVQSGAEVKKPGSSVKVSCRSSGGTFSTYGITWVRQAPGQGLEWMGRIIPSLGIPNYAQKFQGRVTITADTSVSTAWMELSSLESDDTAIYYCARENIDLATNDFWGQGTLVTVSS VL: QSALTQPPSASGSPGQSVTISCTGTSRDIGAYGYVSWYQQVPGKAPKLIIYEVRNRPSGVSSRFSGSKSGNTASLTISGLQAEDEADYYCSSYTSSSTLDVVFGGGTKLTVL | 9.11 pM | 0.135 | 7.58 pM | 0.189 | 8.79 pM | 0.123 |  |  |  |  |  |  |
| S1-RBD-R3-T1-F5 (Ab2-7) scFv-Fc (scFv, V domains shown) VH: QVTLKESGPTRVKPTQTLTLTCTFSGFSLSTTGVGVGWIRQPPGKALEWLALIYWNDDKRYSPSLKSRLTITKDTSKNQVVLTMTNMDPVDTATYYCARISGSGYFYPFDIWGQGTTVTVSS VL: NFMLTQPHSVSESPGKTVTISCTRSSGSIASNYVQWYQQRPGSSPTTVIYEDNQRPSGVPDRFSGSIDSSSNSASLTISGLKAEDEADYYCQSYDSSSLWVFGGGTKLTVL | 379 pM | 0.127 | 360 pM | 0.13 | 7.04 pM | 0.152 |  |  |  |  |  |  |
| Ab_25 scFv-Fc (scFv, V domains shown) VH: QVQLVQSGGGLVQPGGSLRLSCAASGFTFSSYWMSWVRQAPGKGLEWVANIKQDGSEKYYVDSVKGRFTISRDNAKNSLYLQMNSLRAEDTAVYYCARGFYYYGAFDIWGQGTTVTVSS VL: NFMLTQPHSVSESPGKTVTISCTGSSGSIASNYVQWYQQRPGSAPTTVIYEDNQRPSGVPDRFSGSIGSSSNSASLTISGLKTEDEADYYCQSYDSSNHWVFGGGTKLTVL | 427 pM | 0.0668 | 1.13 pM | 0.0577 | 8.72 pM | 0.0396 |  |  |  |  |  |  |
| Ab_13 scFv-Fc (scFv, V domains shown) VH: QVTLKESGPKLVKPTQTLTLTCTFSGFSLSTSGVGVGWIRQPPGKALEWLALIYWDDDKRYSPSLKSRLTIAKDTSKYQVVLTMTNMDPVDTATYYCARISGSGYFYPFDIWGQGTMVTVSA VL: NFMLTQPHSVSESPGKTVTISCTRSSGSIASNYVQWYQQRPGSAPTTVIYEDNQRPSGVPDRFSGSIDSSSNSASLTISGLKTEDEADYYCQSYDSSNLWVFGGGTKLTVL | 1.91 pM | 0.113 | 735 pM | 0.103 | 4.88 pM | 0.112 |  |  |  |  |  |  |
| Ab 29 scFv-Fc (scFv, V domains shown) VH: QVQLQQSGPGLVKPSQTLSLTCAISGDSVSSYSDAWNWIRQSPSRGLEWLGRTYYRSKWYNDYAVSVKSRITINPDTSKNQFSLQLSSVTPEDTAVYYCAREIVATTPFRNYYYGMDVWGQGTTVTVSS VL: NFMLTQPHSVSESPGNTVTISCTRTSGSIASNYVQWYQQRPGSSPTTVIFQDKLRPSGVPDRFSGSIDSSSNSASLTISGLKTEDEADYYCQSYDSSSLWVFGGGTKLTVL |  |  |  |  |  |  | 693 pM | 0.118 | 371 pM | 0.0418 | 8.45 pM | 0.0232 |
| Ab_28 scFv-Fc (scFv, V domains shown) VH: QVTLKESGPGLVNPSETLSLTCTVSGASISNSFWSWIRQSPGKGLEWIGYTSYSGNSIYNPSLKSRLTMSIDTSKNQLSLNLRSLTAADTAVYYCARREWIKGHFDYWGQGTLVTVSS VL: NFMLTQPHSVSESPGKTVTISCTGSGGSIASNYVQWYQQRPGSAPTTVIYEDNQRPSGVPDRFSGSIDSSSNSASLTISGLKTEDEADYYCQSYDSSNPVVFGGGTKLTVL | 1.49 pM | 0.206 | 6.38 pM | 0.12 | 8.91 pM | 0.102 |  |  |  |  |  |  |
| Ab_20 scFv-Fc (scFv, V domains shown) VH: QVQLVQSGGGSVKPGGSLRLSCAASGYRLSDYYMHWVRQAPGKGLEWVANIKQDGSEKYYVDSVKGRFTISRDNAKNSLYLQMNSLRAEDTAVYYCARVRGWSRGYFDYWGQGTLVTVSS VL: NFMLTQPHSVSESPGKTVTISCTGSSGSIASNYVQWYQQRPGSAPTTVIYEDNQRPSGVPDRFSGSIDSSSNSASLLISGLKTEDEADYYCQSYDSSNHWVFGGGTKLTVL | 2.6 pM | 0.173 | 7.03 pM | 0.213 | 11.2 pM | 0.17 |  |  |  |  |  |  |
| Ab_14 scFv-Fc (scFv, V domains shown) VH: QVQLQQSGPGLVKPSQTLSLTCAISGDSVSSNSAAWNWIRQSPARGLEWLGRTYYRSRWYNDYAISMKSRITINPDTSKNQFSLQLESVTPEDTAVYYCAREIRGFDYWGQGTLVTVSS VL: QSVLTQPPSASGSPGQSVTISCTGTSSDVGAYNFVSWYQHHPGKAPKLIIYDFNKRPSGVPDRFSGSKSGNTASLTVSGLQADDEADYYCSSYAGSNNFDVVFGGGTKLTVL | 7.98 pM | 0.355 | 3.1 pM | 0.253 | 9.75 pM | 0.27 |  |  |  |  |  |  |
| Ab_18 scFv-Fc (scFv, V domains shown) VH: EVQLVQSGGGVVQPGRSLRVSCAASGFSFSRYGMHWVRQAPGKGLEWVAFIRHDGSKKYYADSVEGRFTISRDNSRNTVSLEMNSLRGEDTAVYYCAKDGRLEAALDDWGQGTLVTVSS VL: NFMLTQPHSMSGSAGKTVTVSCIRSSGSIANNFVQWYQQRPGSAPTTVIYEDNQRPSGVPDRFSGSIDSSSNSASLTISGLKTEDEADYYCQSYDSSNLVFGGGTRLTVL | 9.28 pM | 0.256 | 1340 pM | 0.12 | 2.97 pM | 0.109 |  |  |  |  |  |  |
| Ab 30 scFv-Fc (scFv, V domains shown) VH: QVQLVQSGGGVVQPGKSLRLSCTASGFTFSDFPIHWVRQAPGKGLEWVGVISYDGNIKYYGDSVKGRFTISRDNAKNSLYLQMNSLRVEDTAVYYCARGGSSFDIWGQGTTVTVSS VL: SYELTQPPSVSEAPRQRVTISCSGSTSNIGNNAVSWYQHLPGKAPKLLIYYNERLPSGVSDRFSGSKSGTSASLAISGLRSEDEADYYCAAWDDSLSGHVVFGGGTKLTVL |  |  |  |  |  |  | < 1 pM | 0.139 | < 1 pM | 0.0883 | 9.02 pM | 0.0766 |
| Ab_26 scFv-Fc (scFv, V domains shown) VH: QVQLVQSGGGLVQPGRSLRLSCAASGFTFDDYAMHWVRQVPGKGLEWVSGIDWNSGVIGYADSVKGRFTISRDNAKNSLYLQMNSLRAEDTALYYCAKDAYSYGFLGAFDIWGQGTMVTVSS VL: LPVLTQPPSVSVAPGQTASITCGGDNIRTKGVHWYQQKPGQAPLLVIYYASDRPSGIPERFSGSSSGNTATLTISRVEAGDEADYYCQVWDSSSDLVVFGGGTTLTVL | 1.37 pM | 0.336 | 1.78 pM | 0.214 | 10.3 pM | 0.188 |  |  |  |  |  |  |
